Assays:
[1] = target: T1, human CD47, cell surface (Raji, CCRF-CEM, Daudi cells) (human, UniProt Q08722 19-323); assay: summary of the binding and blocking assays
T1 construct: Endogenous CD47 on human cell lines; also called cell surface CD47; endogenous (cell surface) form of CD47

[2] = target: T1, human CD47, cell surface (Raji, …); assay: flow cytometry on Raji cells; apparent KD from non-linear fit of median fluorescence intensities

binding result [1]	Kd [2] [nM]	Binder
binds		9E4 antibody (murine) (antibody, mouse IgG1, V domains shown) VH: EVQLRQSGPELVKPGASVKISCKASGYSFTDYYMYWVKQSRVRSLAWIGRINPYTGATGYDQNFKDKASLIVDKSSSTAYMELRSLTSEDSAVYYCARGRNRYDGWFAYWGQGTLVTV VL: EIQMTQTTSSLSASLGDRVTISCRASQDISNYLNWYQQKPDGTVKLLIYYTSRLHSGVPSRFSGSGSGTDYSLTISNLDQEDIATYFCQQGNALPPTFGGGTNLEIK
	3.79	B6H12 (antibody, V domains shown) VH: EVQLVESGGDLVKPGGSLKLSCAASGFTFSGYGMSWVRQTPDKRLEWVATITSGGTYTYYPDSVKGRFTISRDNAKNTLYLQIDSLKSEDTAIYFCARSLAGNAMDYWGQGTSVTVSS VL: DIVMTQSPATLSVTPGDRVSLSCRASQTISDYLHWYQQKSHESPRLLIKFASQSISGIPSRFSGSGSGSDFTLSINSVEPEDVGVYYCQNGHGFPRTFGGGTKLEIK

From patent EP4137518A1 (Inhibrx, Inc., dated 2023)
